For one substance, IC50, cell viability (PrestoBlue), IGR-1 cells results are on record in patent US20250161478A1, “LINKER PAYLOADS AND CONJUGATES THEREOF” (priority 2021, published 2025).

For the experiment, the target named is TYRP1 antigen on human melanoma cells (IGR-1, SK-MEL-30, SK-MEL-28) (human) (UniProt P17643). Briefly: cell-based or functional assay.

For the substance “TAAuM (anti-mGP75-maleimidoacetyl-β-Ala-Val-Ser(Glc)-PAB-MMAU), DAR 10 (antibody)”, the IC50, cell viability (PrestoBlue), IGR-1 cells worked out at 1.3 nM.
